For one molecule, cross-reaction rate results are on record in patent US20180051071A1.

Experiment in all cases: sandwich EIA: 82E1 capture, HRP-labelled IBL-102; antigen 4000 pg/mL read on the E22P-Aβ42 standard curve
Experiment [1] deals with A21P-Aβ42 (Homo sapiens (Human)) (UniProt P05067).
Experiment [2] concerns the target D23P-Aβ42 (Homo sapiens (Human)) (UniProt P05067).
The target in experiment [3] is E22V-Aβ42 (Homo sapiens (Human)) (UniProt P05067).
Experiment [4] has as its target G25P-Aβ42 (Homo sapiens (Human)) (UniProt P05067).
The target of experiment [5] is M35P-Aβ42 (Homo sapiens (Human)) (UniProt P05067).
Experiment [6] addresses V24P-Aβ42 (Homo sapiens (Human)) (UniProt P05067).

B1: IBL-102 antibody (antibody, mouse IgG1, kappa, V domains shown)
VH: EVQLQQSGPELVKPGASVKIFCKASGYTFTDYNMDWVKQSHGKRLEWIGDINPNTGVTIDNPKFKGKATLTVDESSSTVYMELRSLSSEDTAVYYCARLPDNYVMDYWGQGTSVTVSA
VL: DVVMTQTPLSLPVSLGDQASISCRCSQSLVHRNGNTNLHWYLQKSGQSPKLLIYKVSNRFSGVPDRFSGSGSGTDFTLKISRVEAEDLGVYFCSQSTYVPLTFGVGTKLELKR
For B1, the cross-reaction rate turned out to be 0.27% in experiment [1]; 0.5% in experiment [2]; 0.28% in experiment [3]; 0.53% in experiment [4]; 0.68% in experiment [5]; 0.33% in experiment [6].
